Experimental data as given in the supplement of paper PMC9732359.
± gives the uncertainty stated by the source.

Test: protein stability index of a GFP-peptide fusion (yeast GPS) (PSI 1-4); higher = more stable; sorted into four equal gates, so the index is relative within each strain
How it was run: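 Yeast carrying a pooled library were grown to mid-log phase in leucine-free medium. Each library plasmid expresses Cherry and has a tiled 17-residue yeast protein peptide fused downstream of GFP. Cells were sorted into four equal gates by GFP/Cherry ratio, and plasmids from each gate were PCR-amplified, Illumina-sequenced and assigned to strains by barcode. Summing, across gates, the read frequency times the gate number gave each peptide's protein stability index.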

Sequence | protein stability index (doa10∆) | protein stability index (pdr5∆) | protein stability index (san1∆) | protein stability index (ubr1∆)
FGINTNTTKTADTKAPT [YLR335W/NUP2] | 3.4 ± 0.085 | 3.41 ± 0.073 | 3.19 ± 0.07 | 3.5 ± 0.048
ASSLRFGNSLSNTVNAN [YDL088C/ASM4] | 2.81 ± 0.068 | 2.78 ± 0.075 | 2.65 ± 0.059 | 2.89 ± 0.074
DEAKEKQLVEKAELRLA [ECM29] | – | 3.26 ± 0.24 | – | 3.27 ± 0.16
SIQEQIQEFQGNPYIEL [SNF5] | 3.16 ± 0.071 | 3.3 ± 0.08 | 3.49 ± 0.082 | 3.31 ± 0.059
TVNGQARDLATMTYEEV [FAS1] | 2.96 ± 0.08 | 3.15 ± 0.056 | 3.03 ± 0.065 | 2.95 ± 0.045
ELQKSLSLEEVEGHLFE [FAS1] | 3.16 ± 0.11 | 3.32 ± 0.16 | 3.35 ± 0.061 | 3.08 ± 0.098
TMTMDVFNDAHVLNKVT [RPN1] | 2.26 ± 0.065 | 2.25 ± 0.053 | 2.4 ± 0.073 | 2.25 ± 0.045
IQMNNSLQNNLQNNINN [SNF11] | 3.35 ± 0.093 | 3.32 ± 0.088 | 3.06 ± 0.087 | 3.31 ± 0.064
VNIPSFMVRLDSEKHID [RPS9A] | 2.62 ± 0.081 | 2.64 ± 0.051 | 2.48 ± 0.059 | 2.2 ± 0.052
LKRADYTAVDTAKLQMR [RPN14] | – | 3.33 ± 0.23 | 2.76 ± 0.1 | –
SEMLAKYSDILLKKATK [CDC53] | 2.62 ± 0.078 | 2.44 ± 0.12 | – | 2.47 ± 0.17
STEYMMQFAKSKTVKVL [RPN6] | 1.1 ± 0.064 | 1.2 ± 0.073 | 1.2 ± 0.2 | 1.07 ± 0.094
DITSDQLLQRLNDMNTE [SMC3] | 3.46 ± 0.16 | – | 3.24 ± 0.13 | 3.17 ± 0.12
IAKTFTVDVSSPTENGV [RPL22A] | 3.04 ± 0.11 | 3 ± 0.1 | 2.9 ± 0.094 | 2.99 ± 0.077
MVSHKTARGKAALERLK [RPL16B] | 2.92 ± 0.21 | 2.74 ± 0.15 | 2.47 ± 0.21 | 2.21 ± 0.16
FNQFVDYTLQDIICEDS [RPB2] | 2.72 ± 0.1 | 2.86 ± 0.083 | 2.78 ± 0.053 | 2.36 ± 0.079
GTFGGDGMYSESKLSLE [FAS2] | 2.91 ± 0.046 | 2.66 ± 0.051 | 3.35 ± 0.036 | 2.87 ± 0.04
MRLIKRVRAESLHSNSF [YJL039C/NUP192] | 2.12 ± 0.11 | 1.64 ± 0.14 | – | 2.44 ± 0.12
PSAEIREAYIENFAKGE [SWP82] | 2.39 ± 0.073 | 2.63 ± 0.084 | 2.58 ± 0.1 | 2.4 ± 0.064
MEGDDLFDEFGNLIGVD [SNU114] | 3.37 ± 0.2 | – | – | –
IYISNLVRSIIAFDDLI [RPN8] | 1.42 ± 0.066 | 1.36 ± 0.11 | 1.17 ± 0.23 | 1.27 ± 0.27
LIQKLQNSANNNSDDED [IRR1] | 2.98 ± 0.1 | 3.08 ± 0.074 | 3.26 ± 0.05 | 3.38 ± 0.083
FEETKLSTTPTKSNRRV [SIR4] | 2.65 ± 0.1 | 2.83 ± 0.12 | 2.73 ± 0.12 | 2.78 ± 0.15
EFKSIEIEMKNKLEKLN [SMC4] | 1.68 ± 0.058 | 1.51 ± 0.075 | 1.42 ± 0.19 | 1.37 ± 0.046
LQKQMGIGSLTDLMSIV [RPC34] | 1.91 ± 0.11 | 2.04 ± 0.13 | 2.68 ± 0.12 | 1.86 ± 0.14
TSSRGRDHKSYSQSPPR [SMC4] | 2.65 ± 0.046 | 2.81 ± 0.056 | 2.59 ± 0.088 | 2.83 ± 0.038

Sequence | protein stability index (doa10∆) | protein stability index (pdr5∆) | protein stability index (san1∆) | protein stability index (ubr1∆)
ATANATANATANVNASA [DSN1] | 2.78 ± 0.043 | 3 ± 0.037 | 3.17 ± 0.032 | 2.918 ± 0.025
QIFKVAGENAPSIVFID [RPT2] | 1.84 ± 0.098 | 1.2 ± 0.059 | 1.31 ± 0.13 | 1.33 ± 0.066
EVTKGEKTYTKAPKIQR [RPS6A] | 3.17 ± 0.18 | 3.19 ± 0.14 | – | 3.53 ± 0.13
ELFDILSTSEDVSIEEL [IRR1] | 2.66 ± 0.17 | 2.15 ± 0.2 | 2.6 ± 0.21 | 2 ± 0.13
LKKGEQKTQELNAKYQS [ISW2] | 3.31 ± 0.063 | 3.22 ± 0.047 | 3.29 ± 0.039 | 3.29 ± 0.055
FNITDNGVRALFHSCTR [GRR1] | 1.53 ± 0.11 | 2.52 ± 0.088 | 1.09 ± 0.15 | 2.35 ± 0.054
DNFSPHQNVIIGSNGSG [SMC3] | – | 2.89 ± 0.14 | 2.78 ± 0.088 | 3.28 ± 0.079
TILSSKLSNIWMQRQLI [SRB2] | 2.33 ± 0.11 | 1.96 ± 0.1 | 2.76 ± 0.1 | 2.82 ± 0.051
SESKDSDKPSLPSAVDG [YLR335W/NUP2] | 3.41 ± 0.1 | 3.38 ± 0.1 | 3.28 ± 0.11 | 2.95 ± 0.15
TANAKHTSSNSREIAQP [SMB1] | 2.91 ± 0.14 | 2.94 ± 0.099 | 3.19 ± 0.07 | 3.33 ± 0.17
QQQLVNQMKVAPIPKQL [GAL11] | 2.94 ± 0.046 | 2.96 ± 0.041 | 2.974 ± 0.026 | 2.63 ± 0.038
KSLDEQLLLLSDERAKL [LRP1] | 2.73 ± 0.095 | 3.2 ± 0.1 | 2.84 ± 0.046 | 2.91 ± 0.088
LELTTGATYRGKLVESE [SMD3] | 3.29 ± 0.079 | 3.26 ± 0.084 | 2.94 ± 0.11 | 3.38 ± 0.057
YMDCLLYDLRASYAKIE [SNU114] | 1.84 ± 0.074 | 2.32 ± 0.076 | 1.81 ± 0.095 | 1.74 ± 0.092
QRTAQDRVQQDSEDEDS [YML031W/NDC1] | 2.78 ± 0.089 | 2.56 ± 0.078 | 3.24 ± 0.081 | 2.91 ± 0.052
AGTQSSKFSKQQAKGAF [RPL24A] | 3.2 ± 0.063 | 3.27 ± 0.062 | 3.27 ± 0.035 | 3.17 ± 0.049
LGQLYVTMGAKDKLREF [RPN6] | 3.33 ± 0.12 | 3.13 ± 0.11 | 3.08 ± 0.078 | 3.12 ± 0.069
GYVETPRGLRSLTTVWA [RPL3] | 1.75 ± 0.29 | – | – | –
KGGIIASVGDILKTLER [YML031W/NDC1] | 2.99 ± 0.11 | 2.93 ± 0.09 | 3.32 ± 0.092 | 2.87 ± 0.13
TTDKNTTDDKSMDTKKK [BRN1] | 3.51 ± 0.1 | 3.51 ± 0.084 | 3.61 ± 0.039 | 3.33 ± 0.053
KLKQGQKLFVQVSNFAP [GAL11] | 2.74 ± 0.063 | 2.81 ± 0.057 | 3.01 ± 0.051 | 2.84 ± 0.05
DSLSGAVIAAIMQEAGL [RPT3] | – | 1.14 ± 0.18 | – | –
SLYTNTSRKALEEVSLK [RPL3] | – | 2.38 ± 0.13 | 2.33 ± 0.14 | 1.83 ± 0.19
KGKARLGTLVNQKTSAV [RPL8A] | 2.65 ± 0.078 | 2.38 ± 0.076 | 3.15 ± 0.083 | 2.94 ± 0.057
YYYNTKIYKLENGERKL [YMR129W/POM152] | 3.03 ± 0.05 | 3.26 ± 0.069 | 3.1 ± 0.069 | 3.18 ± 0.04
TSRVTGILLLDSLIQLA [YJL039C/NUP192] | 1.85 ± 0.062 | 1.77 ± 0.056 | 1.59 ± 0.094 | 1.95 ± 0.048

Sequence | protein stability index (doa10∆) | protein stability index (pdr5∆) | protein stability index (san1∆) | protein stability index (ubr1∆)
SSPSHIELVVTEKEEAV [RPL17A] | 2.08 ± 0.051 | 2.74 ± 0.045 | 2.3 ± 0.059 | 2.08 ± 0.039
NTAPGLGNTVSTQPSFA [YGR119C/NUP57] | 3.04 ± 0.11 | 2.96 ± 0.079 | 2.9 ± 0.098 | 3.04 ± 0.056
YRPLTPSSEVYSPIEKE [RRP6] | 2.74 ± 0.071 | 3.03 ± 0.064 | 2.69 ± 0.073 | 2.91 ± 0.066
STPDQRKRVYNIKFLSK [ESC2] | 3.34 ± 0.22 | – | 2.81 ± 0.08 | 2.93 ± 0.12
HTSSSDGNNEIFTCQIM [RPN4] | 2.57 ± 0.094 | 2.89 ± 0.082 | 3.08 ± 0.064 | 2.86 ± 0.086
YSVLLESPLSVAIQQGD [YML103C/NUP188] | 1.23 ± 0.091 | 1.16 ± 0.063 | 1.2 ± 0.17 | 1.19 ± 0.077
IHGQDFQFFPKELDALQ [ISW2] | 2.62 ± 0.048 | 2.75 ± 0.053 | 3.11 ± 0.037 | 2.78 ± 0.041
QPDENTKEMDEVEEDDE [SWI3] | 3.22 ± 0.17 | 3.49 ± 0.15 | 3.53 ± 0.092 | 3.43 ± 0.054
AVYGPRSIRGSFTSQGT [MTR3] | 3.16 ± 0.12 | 3.2 ± 0.086 | 3.08 ± 0.098 | 3.02 ± 0.058
GVHTGQFIYAGKKASLN [RPL2A] | – | 3.51 ± 0.19 | 3.15 ± 0.1 | 3.4 ± 0.12
KRVHTLLTLIVREYEQP [ISW2] | 3.28 ± 0.23 | 2.55 ± 0.15 | 3.06 ± 0.15 | 3.46 ± 0.18
KDILNLASEVGDPALVY [ECM29] | 2.87 ± 0.09 | 3.15 ± 0.12 | 3.39 ± 0.066 | 2.87 ± 0.076
EVTIEDALKVVLRTALV [RPS12] | 3.35 ± 0.11 | 3.31 ± 0.091 | 3.35 ± 0.099 | 3.11 ± 0.067
LICSIGLHSSEYKLRSL [ECM29] | 2.03 ± 0.046 | 2.41 ± 0.05 | 2.26 ± 0.07 | 2.56 ± 0.038
VKCKMSALQQIMYQQML [SNF2] | 2.8 ± 0.11 | 2.56 ± 0.14 | 2.72 ± 0.12 | 2.8 ± 0.074
ILNHIGQLTGIYRYKYK [PRP8] | 1.39 ± 0.072 | 1.47 ± 0.075 | 1.26 ± 0.11 | 2.03 ± 0.068
VMTISSLEQRTLNPDLF [RPC82] | – | 3.1 ± 0.28 | – | –
LRELDVELIESKINELS [SMC4] | 3.37 ± 0.096 | 3.47 ± 0.077 | 3.38 ± 0.073 | 3.35 ± 0.047
EKIRPLRSRSFKSTESN [YMR129W/POM152] | – | – | 2.87 ± 0.28 | –
PEESKPINLQNGEEDEV [YLR335W/NUP2] | 2.9 ± 0.075 | 2.92 ± 0.077 | 3.1 ± 0.046 | 3.1 ± 0.062
SSFNFNKNLPFVWLSSE [SWI1] | 3.05 ± 0.046 | 2.32 ± 0.057 | 1.84 ± 0.053 | 2.4 ± 0.033
TGNIKHEDLVNSIESKN [COR1] | 3.13 ± 0.093 | 2.99 ± 0.11 | 3.2 ± 0.075 | 2.96 ± 0.087
ILGKNFDSVIVENLTVA [SMC1] | 2.48 ± 0.08 | 2.15 ± 0.083 | 2.11 ± 0.075 | 2.19 ± 0.054
VDQGQIYRDRSTFTKHL [ITC1] | 3.2 ± 0.06 | 3.33 ± 0.067 | 3.15 ± 0.042 | 3.15 ± 0.037
YHFPIFNKYADPTLTTT [RPN4] | 2.05 ± 0.037 | 2.22 ± 0.048 | 2.24 ± 0.048 | 2.3 ± 0.036
KNWQNVGSLVVKSSMGP [RPL1A] | 2.1 ± 0.046 | 2.39 ± 0.051 | 2.7 ± 0.064 | 2.29 ± 0.045
